Results taken from PMC11481574.
Several values for one entry are separate records, joined by “and”; a condition that tells them apart may be missing. Identical values can stand only once.

Target: Vibrio His-FliFG fusion protein with the FliG-G214S mutation (Vibrio alginolyticus)
Test: cryo-EM structure; single-particle cryo-EM of the purified, concentrated MS-ring in buffer with LMNG; grids frozen after blotting at 4°C, 100% humidity; two classes with 35- or 34-fold rotational symmetry

Vibrio His-FliFG fusion protein with the FliG-G214S mutation
stoichiometry N: 35 and 34
